Measurements taken from the supplement of paper PMC11136658.

Test system: peptide library, one residue held at a place counted from the Y acceptor
Assay: relative phosphorylation of the sub-library (ratio to the mean residue at this position); higher = residue favoured
How it was run: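 Each value expresses phosphorylation relative to the mean randomized residue. Purified recombinant kinases acted for 90 min in 384-well plates on biotinylated Tyr-centred peptide library mixtures, with one residue fixed at one position from −5 to +5, in the presence of 50 μM ATP with γ-32P-ATP. Signals were read by phosphorimaging after capture on streptavidin membranes, then normalized per position to the sum of the 18 randomized residues (16 in the Ser/Thr-free library) and multiplied by that number.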

KDR, construct: aa789-end, human, sequence (P35968 789-1356, looked up): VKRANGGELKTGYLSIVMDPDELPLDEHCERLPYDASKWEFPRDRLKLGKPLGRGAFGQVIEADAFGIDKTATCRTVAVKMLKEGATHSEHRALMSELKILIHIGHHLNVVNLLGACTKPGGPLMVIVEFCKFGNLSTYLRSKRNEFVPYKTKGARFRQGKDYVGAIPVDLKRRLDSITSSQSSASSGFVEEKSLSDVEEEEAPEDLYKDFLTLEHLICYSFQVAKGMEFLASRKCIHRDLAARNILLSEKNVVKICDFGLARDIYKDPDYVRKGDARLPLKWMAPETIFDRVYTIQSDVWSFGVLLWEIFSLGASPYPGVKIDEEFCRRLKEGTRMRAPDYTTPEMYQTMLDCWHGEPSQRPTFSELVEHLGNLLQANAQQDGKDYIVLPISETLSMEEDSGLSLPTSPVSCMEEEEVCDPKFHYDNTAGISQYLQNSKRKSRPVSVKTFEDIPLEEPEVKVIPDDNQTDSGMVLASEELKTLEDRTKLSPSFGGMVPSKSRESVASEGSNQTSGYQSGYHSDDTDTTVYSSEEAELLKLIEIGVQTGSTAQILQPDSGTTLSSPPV
JAK2, construct: aa809-end plus 9aa C-term extension from Gateway cloning, human, sequence (O60674 809-1132, looked up): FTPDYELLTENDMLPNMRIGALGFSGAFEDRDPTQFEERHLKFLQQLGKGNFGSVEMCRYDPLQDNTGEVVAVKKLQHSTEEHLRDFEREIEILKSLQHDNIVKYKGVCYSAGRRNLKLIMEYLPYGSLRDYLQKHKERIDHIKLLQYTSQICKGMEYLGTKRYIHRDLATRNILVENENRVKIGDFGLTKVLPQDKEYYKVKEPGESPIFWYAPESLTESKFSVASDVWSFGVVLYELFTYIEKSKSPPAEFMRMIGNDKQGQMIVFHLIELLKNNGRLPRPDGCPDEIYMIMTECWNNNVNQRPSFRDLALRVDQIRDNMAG
HCK, construct: aa230-497, human, sequence (P08631 230-497, looked up): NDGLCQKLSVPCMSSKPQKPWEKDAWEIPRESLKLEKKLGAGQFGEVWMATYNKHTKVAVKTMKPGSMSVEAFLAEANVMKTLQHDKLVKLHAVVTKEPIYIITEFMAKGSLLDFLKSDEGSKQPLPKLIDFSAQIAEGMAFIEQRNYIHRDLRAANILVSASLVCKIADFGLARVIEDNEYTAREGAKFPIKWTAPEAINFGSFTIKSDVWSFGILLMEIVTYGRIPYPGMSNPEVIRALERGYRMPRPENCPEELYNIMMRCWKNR

HCK, construct: aa230-497, human (from UniProt P08631)
relative phosphorylation
Conditions | at +1 | at +2 | at +3 | at +4 | at +5 | at -1 | at -2 | at -3 | at -4 | at -5
A fixed | 1.66 | 0.982 | 0.656 | 0.876 | 1.06 | 0.652 | 1.08 | 0.95 | 1.15 | 1.1
D fixed | 0.917 | 0.585 | 0.323 | 0.623 | 0.676 | 0.844 | 1.29 | 1.43 | 1.16 | 1.18
E fixed | 1.55 | 1.19 | 0.316 | 0.766 | 0.746 | 1.04 | 1.49 | 1.65 | 1.47 | 1.01
F fixed | 0.785 | 1 | 2.12 | 1.08 | 1.05 | 1.09 | 0.717 | 1.11 | 0.966 | 0.987
G fixed | 2.28 | 0.813 | 0.862 | 1.11 | 1.09 | 0.456 | 1.31 | 1.02 | 1.31 | 1.18
H fixed | 0.812 | 0.659 | 0.992 | 1.09 | 0.964 | 0.768 | 0.915 | 1.01 | 0.85 | 0.907
I fixed | 0.815 | 1.15 | 1.84 | 0.87 | 0.769 | 2.91 | 0.843 | 0.718 | 0.977 | 0.922
K fixed | 0.253 | 0.807 | 0.675 | 1.31 | 1.27 | 0.259 | 0.633 | 0.543 | 0.629 | 0.91
L fixed | 0.816 | 1.03 | 1.49 | 0.907 | 0.984 | 2.15 | 1 | 0.956 | 1.18 | 1.09
M fixed | 1.37 | 1.13 | 1.1 | 1.31 | 1.06 | 1.12 | 0.808 | 0.964 | 1.11 | 1.1
N fixed | 0.612 | 0.95 | 0.477 | 0.801 | 0.853 | 0.414 | 1.24 | 1.15 | 0.817 | 0.995
P fixed | 0.265 | 0.975 | 0.758 | 0.902 | 1.26 | 0.769 | 1.06 | 1.06 | 1.15 | 1.16
Q fixed | 0.923 | 0.888 | 0.508 | 0.99 | 0.731 | 0.521 | 1.04 | 0.867 | 0.934 | 0.99
R fixed | 0.369 | 0.993 | 1.18 | 1.49 | 1.51 | 0.228 | 0.667 | 0.58 | 0.685 | 0.772
S fixed | 1.12 | 1.17 | 0.663 | 0.972 | 1.05 | 0.489 | 1.18 | 1.02 | 0.761 | 0.942
T fixed | 0.97 | 1.42 | 0.706 | 0.924 | 0.998 | 1.35 | 1.01 | 0.961 | 0.709 | 0.845
V fixed | 1.14 | 1.17 | 1.36 | 0.872 | 0.811 | 2.24 | 0.95 | 0.807 | 0.925 | 0.912
W fixed | 1.34 | 1.08 | 1.98 | 1.11 | 1.12 | 0.698 | 0.771 | 1.2 | 1.21 | 0.99
pThr fixed | 0.949 | 1.18 | 0.296 | 0.431 | 0.421 | 2.4 | 1.22 | 1.12 | 1.05 | 1.09
pTyr fixed | 1.46 | 1.61 | 0.497 | 0.628 | 0.569 | 1.09 | 1.21 | 1.37 | 1.4 | 1.1

JAK2, construct: aa809-end plus 9aa C-term extension from Gateway cloning, human (from UniProt O60674)
relative phosphorylation
Conditions | at +1 | at +2 | at +3 | at +4 | at +5 | at -1 | at -2 | at -3 | at -4 | at -5
A fixed | 1.07 | 0.945 | 0.889 | 0.971 | 1.11 | 1.13 | 0.982 | 1.02 | 1.07 | 1.08
D fixed | 0.252 | 0.644 | 0.411 | 0.858 | 0.792 | 1.32 | 0.91 | 1 | 1.04 | 0.999
E fixed | 0.45 | 0.78 | 0.33 | 0.934 | 0.764 | 1.18 | 0.98 | 1.01 | 1.26 | 0.926
F fixed | 1.63 | 1.08 | 1.42 | 1.12 | 1.02 | 1.11 | 0.961 | 1.05 | 1.09 | 1.07
G fixed | 0.48 | 0.786 | 0.788 | 1.13 | 1.25 | 0.999 | 1.14 | 1.18 | 1.36 | 1.1
H fixed | 1.42 | 0.785 | 1.12 | 1.05 | 1.04 | 1.05 | 1.07 | 0.901 | 0.929 | 0.919
I fixed | 1.97 | 0.961 | 1.94 | 0.87 | 0.922 | 1.26 | 1.04 | 0.953 | 0.963 | 1.06
K fixed | 0.447 | 1.23 | 0.52 | 1.11 | 0.962 | 0.659 | 0.998 | 0.825 | 0.861 | 0.903
L fixed | 1.55 | 1.08 | 1.43 | 0.892 | 0.927 | 1.11 | 1.05 | 1.03 | 1.05 | 1.07
M fixed | 1.35 | 1 | 1.25 | 1.15 | 0.946 | 0.87 | 0.794 | 0.901 | 0.997 | 1.05
N fixed | 0.45 | 0.982 | 0.681 | 0.846 | 0.871 | 0.762 | 0.981 | 1.01 | 0.849 | 1.02
P fixed | 0.566 | 1.03 | 1.24 | 1.04 | 1.64 | 1.16 | 1.13 | 1.45 | 1.16 | 1.22
Q fixed | 0.9 | 0.975 | 0.667 | 1.12 | 0.867 | 0.745 | 0.954 | 0.824 | 1.11 | 1.01
R fixed | 0.623 | 1.2 | 0.686 | 1.09 | 0.931 | 0.616 | 0.984 | 0.757 | 0.886 | 0.877
S fixed | 0.814 | 1.02 | 0.893 | 0.966 | 1.1 | 0.987 | 1.05 | 1.02 | 0.772 | 0.927
T fixed | 1.09 | 1.07 | 1.17 | 0.909 | 1.06 | 0.989 | 0.98 | 0.976 | 0.716 | 0.824
V fixed | 1.76 | 1.1 | 1.35 | 0.915 | 0.886 | 1.14 | 0.983 | 1.03 | 0.836 | 0.988
W fixed | 1.18 | 1.32 | 1.23 | 1.04 | 0.914 | 0.909 | 1 | 1.05 | 1.05 | 0.952
pThr fixed | 0.332 | 0.537 | 0.205 | 0.53 | 0.543 | 1.1 | 0.744 | 0.944 | 1 | 0.905
pTyr fixed | 0.814 | 0.927 | 0.422 | 0.803 | 0.643 | 1.59 | 0.983 | 1.35 | 1.4 | 1.15

KDR, construct: aa789-end, human (from UniProt P35968)
relative phosphorylation
Conditions | at +1 | at +2 | at +3 | at +4 | at +5 | at -1 | at -2 | at -3 | at -4 | at -5
A fixed | 0.852 | 0.685 | 0.543 | 0.829 | 0.944 | 0.816 | 0.954 | 0.915 | 1.04 | 1
D fixed | 0.301 | 0.599 | 0.314 | 0.665 | 0.745 | 2.25 | 1.1 | 1.21 | 1.04 | 0.987
E fixed | 0.416 | 0.621 | 0.246 | 0.608 | 0.696 | 1.46 | 1.2 | 1.29 | 1.26 | 0.973
F fixed | 1.6 | 1.34 | 2.2 | 1.1 | 1.04 | 0.846 | 0.617 | 0.819 | 0.818 | 0.816
G fixed | 0.612 | 0.417 | 0.465 | 1.01 | 1.13 | 0.631 | 1.36 | 1.17 | 1.33 | 1.21
H fixed | 1.37 | 0.86 | 0.523 | 0.95 | 0.978 | 1.37 | 1.12 | 1.02 | 0.975 | 1.03
I fixed | 1.22 | 0.919 | 2.05 | 0.733 | 0.86 | 1.05 | 0.546 | 0.573 | 0.741 | 0.756
K fixed | 0.944 | 1.32 | 0.469 | 1.52 | 1.17 | 0.726 | 1.21 | 1.18 | 1.2 | 1.49
L fixed | 1.06 | 1.39 | 2.56 | 0.906 | 0.907 | 0.886 | 0.723 | 0.745 | 0.788 | 0.771
M fixed | 1.17 | 1.06 | 2.1 | 0.996 | 1.04 | 0.654 | 0.645 | 0.699 | 0.826 | 0.857
N fixed | 0.634 | 1.12 | 0.465 | 0.862 | 1.05 | 1.36 | 1.32 | 1.23 | 0.886 | 1.08
P fixed | 0.645 | 0.63 | 0.787 | 1.29 | 1.26 | 0.842 | 1.08 | 1.15 | 1.28 | 1.14
Q fixed | 1.27 | 1.01 | 0.561 | 1.02 | 0.916 | 1.07 | 1.19 | 1.09 | 1.12 | 1.01
R fixed | 1.14 | 1.77 | 0.7 | 1.6 | 1.39 | 0.841 | 1.55 | 1.29 | 1.36 | 1.44
S fixed | 0.712 | 0.921 | 0.599 | 0.982 | 1.09 | 0.671 | 1.14 | 1.05 | 0.856 | 0.973
T fixed | 0.939 | 0.924 | 0.675 | 0.989 | 1.18 | 0.86 | 0.938 | 1.06 | 0.743 | 0.947
V fixed | 1.79 | 1.02 | 1.65 | 0.841 | 0.733 | 0.962 | 0.637 | 0.633 | 0.756 | 0.768
W fixed | 1.31 | 1.39 | 1.09 | 1.09 | 0.872 | 0.689 | 0.658 | 0.883 | 0.991 | 0.761
pThr fixed | 0.636 | 1.09 | 0.307 | 0.54 | 0.602 | 1.64 | 1.14 | 1.41 | 1.1 | 1.25
pTyr fixed | 2.12 | 1.83 | 0.405 | 0.526 | 0.731 | 2.89 | 1.99 | 2.27 | 2.12 | 1.45
